For three molecules, Kd results are on record in paper PMC4445638 (2015).

In the assay the target is T1, DLL4 N-EGF2 (Rattus norvegicus, UniProt D3ZHH1).
T1 chain: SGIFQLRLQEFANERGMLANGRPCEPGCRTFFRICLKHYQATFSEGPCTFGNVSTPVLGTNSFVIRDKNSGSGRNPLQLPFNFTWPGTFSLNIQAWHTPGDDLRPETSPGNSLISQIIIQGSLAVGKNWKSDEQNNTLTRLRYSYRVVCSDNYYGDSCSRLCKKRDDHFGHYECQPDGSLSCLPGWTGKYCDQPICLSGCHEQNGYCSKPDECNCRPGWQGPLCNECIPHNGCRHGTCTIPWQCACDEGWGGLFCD
The assay is described as follows: SPR. (In general: SPR reads the build-up and loss of mass on a sensor chip optically.)

MPRLLAPLLCLTLL [Notch1 EGF1-14]: the affinity, expressed as Kd, was 12.7 µM.

For the molecule CLTLL [Notch1 EGF10-14], the Kd (commonly a measure of binding affinity in units of concentration) stood at 8.6 µM.

B1: Notch1 411-530 (protein)
chain: QDVDECALGANPCEHAGKCLNTLGSFECQCLQGYTGPRCEIDVNECISNPCQNDATCLDQIGEFQCICMPGYEGVYCEINTDECASSPCLHNGRCVDKINEFLCQCPKGFSGHLCQYDVD
As for B1, the Kd is 7.5 µM.
